B1: Hairpin Ribozyme (parent)
chain: GUCCUCUUUCACGUGCGCGUGAAAGAGAGAAGUGAACCAGAGAAACACACGUUGUGGUAUAUUACCUGGUA

Variants of: B1
Assay: self-cleavage, relative activity (ratio to wild type); higher = more cleavage; co-transcriptional

Variant	self-cleavage
C16U G40U	0.146
C4A A36C	0.138
C10G G13C	0.401
U5A U33C	0.0952
C50A C66G	0.217
U7C G17C	0.527
A35C C66U	0.558
G19A A31G	0.7
G56C A64C	0.104
U2C C10G	0.118
C6G A64G	0.365
U7G U9G	0.599
C4G A71C	0.483
A22U C46U	0.117
C50U G54C	0.534
U20A A36G	0.858
C46G U67C	0.173
U2C U53G	0.0768
A43C G56C	0.165
C3G G25A	0.146
A43G A49C	0.116
U55G G57A	0.0886
A26C A35U	0.495
U2G A45U	0.0683

Variant	self-cleavage
A59U G68U	0.188
A26G G40C	0.167
C18G A41G	0.555
U58C C65U	0.55
U60A C65U	0.301
G15U A26U	0.831
A30G A36U	0.152
G29U A36C	0.101
U62C G69A	0.112
G27C A35U	0.0854
A44G A47U	0.163
A28C C37U	0.396
C18G G42C	0.255
A28U U70A	0.422
C18U A59U	0.176
C65G A71C	0.697
U53A A61C	0.178
U5G A43C	0.269
C16A G34U	1.47
C46A	0.148
G1A U5G	0.14
U7G U53C	0.84
C6G G54C	0.265
C12A A64U	0.176

Variant	self-cleavage
U58G U70C	0.84
A28G A64U	0.159
U2C U5G	0.0932
G13C A45C	0.145
U8A A47G	0.187
G40U U70C	0.12
G21A A43C	0.153
U58A U63G	0.194
C18A C66A	0.258
G21C G51A	0.914
U5C A59C	0.105
G19A U52G	0.735
U33C G56A	0.0589
C12G A24C	0.613
C10A G54C	0.355
G17A U63G	0.29
C10U C38A	0.157
C6U G56A	0.193
U33G G40U	0.0849
A43G U55G	0.128
G32U A44G	0.0996
C38A G69A	0.146
G19U C65U	0.306
C12G G69U	0.259

Variant	self-cleavage
U8C G56A	0.153
G25U G27U	0.17
G27U C46G	0.0944
A49C U58C	0.316
U9A G40A	0.262
C10G C46U	0.0874
C16G U33A	0.105
A11U C12G	0.74
G27A G69A	0.155
C18U U53A	1
U33G A36G	0.0878
U14C A71G	1.24
G15U A49C	0.0683
A36G A71U	1.04
G21C A30G	0.22
A43G A71U	0.16
G27C A39U	0.0549
G32A U33C	0.119
U5A G17A	0.435
C16A C38A	0.203
U20G U67C	0.186
A24U A44C	0.252
U5G A26G	0.286
U9G A41G	0.593

Variant	self-cleavage
U7A G25C	0.402
G13U A22U	0.622
G27A A36U	0.198
G19A U67A	0.264
A45U A49G	0.165
C18U U60A	0.883
A31U U63G	0.0484
C50A C66U	0.15
A35U G54C	0.0851
A47G G69C	0.112
A45C A61G	0.105
U55C A59C	0.0877
C38A A45G	0.104
U2G A35U	0.27
A31G A35U	0.378
C66U A71U	0.417
C38A G56C	0.136
G1U G17A	0.2
G29C U62G	0.18
C4A A61U	0.122
G21C A39U	0.46
U53G U58G	0.405
C3A G21A	0.567
C10A A64G	0.397

Variant	self-cleavage
A49U G51U	0.135
U33G U63G	0.198
G25C G57U	0.216
A43U G69A	0.119
C12G	0.827
A11U C46A	0.16
A43C C46U	0.194
A28C C66U	0.227
C12U U52C	1.1
A41C C50A	0.634
C48A U67G	0.122
C50U C65U	0.199
U33G A71C	0.307
U60G G68C	0.127
U20G C37U	0.594
G17C U33A	0.149
C4G A61U	0.0796
A23C A31G	0.696
C10G U60C	0.815
C4A A22U	0.22
C6U G42C	0.342
C18G A44U	0.135
G40C C48A	0.128
U2G A59U	0.0332

Variant	self-cleavage
G1U C10A	0.151
A24C A59C	0.209
C10A A30U	0.156
U52C U70A	1.22
C16A A23G	0.783
C16U U52C	0.7
C38G A41G	0.618
U9C A22U	0.799
G13U G54A	0.518
G15A A26C	0.93
G19C G34A	1.08
G19C A26U	0.719
A35U U67A	0.126
G27C G32A	0.191
G27C C50A	0.242
A47U A64G	0.0969
A28U G68A	0.153
U14A G69C	0.337
A11G A61C	0.14
C10U G68C	0.229
A31U A43C	0.169
G34C A64U	0.442
G21U G51C	0.859
A22C A59U	0.104

Variant	self-cleavage
G57C U67G	0.123
G25U A61C	0.231
U7A A71U	0.814
G27A A71U	0.28
C48G U70C	0.302
A23G U52A	0.899
G40C A47C	0.142
A24C G51U	0.878
A11C G17U	0.745
U14A G42A	0.108
U9A C12A	0.377
U58G G69C	0.142
A26C G69U	0.108
U2G C65U	0.163
G40U A44C	0.105
U14A A36U	0.582
U8G C12G	0.146
A22C U60C	1.16
G25C A30C	0.21
C3A U58A	0.637
A45U G54A	0.138
G17C C38G	0.245
U8C G54A	0.378
U8A A43G	0.13

Variant	self-cleavage
A28G U55C	0.53
U53A U58G	0.603
U7C C16U	1
U62C C65U	0.162
C16A U20G	0.812
C10G C37U	0.379
U2A A43C	0.114
A30G A45G	0.17
A45G U55A	0.121
A36U A41U	0.868
A23C A28U	0.501
A39G C48G	0.0932
G15U G51A	0.948
U14G A28C	0.589
A35U A71G	0.962
C10A U62G	0.162
A26U G54A	0.318
A36C G51A	0.799
A49C U70C	0.0597
U7G G34U	1.22
A23U A24C	1.02
G34C C48G	0.16
G1A A39U	0.154
A30C A49C	0.0983

Variant	self-cleavage
G15A A45G	0.17
U8C C48G	0.155
G13U G27U	0.215
A26U U52C	0.656
C6A C65G	0.158
U33G A39C	0.149
C4U G54C	0.364
G56U G69A	0.114
U7C A59U	0.178
A45U G69U	0.197
U14C U60C	1.13
U2G U7G	0.35
G27U C65A	0.184
U14C G54A	0.509
U9C A49U	0.0445
U53C U58A	0.709
C6G A31C	0.0766
G25U U63A	0.184
C18G U60G	0.483
A26C U55C	0.211
C3G U52A	0.332
C4U G57C	0.226
C16A A36G	1.1
G17U G40U	0.181

Variant	self-cleavage
A44C G69U	0.167
A44C A59G	0.158
C6A G32U	0.133
A30U G69U	0.149
G34C U58A	1.27
C18U A49C	0.193
C10A G21A	0.856
U9C U52A	0.895
C6G A71C	0.855
A39G G68U	0.107
C16A G29C	0.0987
C12A A43C	0.257
A11G C46G	0.0993
G1A A23C	0.221
G1C A31C	0.284
G21A G29C	0.168
G15C A39C	0.463
A30U G56U	0.149
A64C C66A	0.0503
G42A A47G	0.162
A43G C65G	0.117
A26C G32A	0.0538
U9G G68U	0.189
A45G A64C	0.216

Variant	self-cleavage
G27C U62G	0.161
U2C C38G	0.157
U33A A61U	0.167
C37G U67A	0.263
A11G A39U	0.495
U14G	0.813
G15U A24C	1.08
C37G U58A	0.202
U5C U33G	0.208
A36G C46G	0.178
A11C A71U	0.747
C4G C46U	0.235
U2C G29U	0.0528
U2G A64U	0.0768
A45G C46U	0.223
C3U U8G	0.245
C16G U67A	0.097
C10U C50A	0.18
C10U A28G	0.822
U14G C48A	0.165
G21A A39C	0.467
G17C G57C	0.206
C37G U63G	0.129
A44G A45U	0.0878

Variant	self-cleavage
U33A U62C	0.184
U7A U60A	0.893
U52C G69A	0.416
C18U A26G	0.975
G15U U20C	1
U2G G57C	0.117
C50A G56C	0.104
A35U A36G	0.901
U5C C66U	0.38
A11G G29C	0.177
C3A G69U	0.212
C3G C38U	0.133
A36G G42C	0.347
C4U A44G	0.269
U2G C4A	0.242
G15C C66G	0.0808
G40A U62C	0.141
U20G A22C	0.816
G15C A45C	0.18
C16G A59U	0.145
U5C G15U	0.574
A31G A36U	0.306
A26U A43C	0.098
G13C G34C	1.1

Variant	self-cleavage
A36G G54C	0.544
A45U C50G	0.146
A61G U67A	0.328
U5C A23G	0.683
A45C A49U	0.202
G15C C18U	0.922
U55A U60A	0.245
G1A A26C	0.147
A45U C48A	0.14
U14G A49U	0.0246
G15A G32A	0.145
C6A A30C	0.221
G56C A64G	0.148
C18A U53G	0.891
A59U	0.157
A22C C48A	0.291
G34A A61G	0.091
C3U A26U	0.27
U14G U67C	0.145
U14A A30C	0.222
C4A G69A	0.141
G1U A64U	0.119

From the RNAGym collection of RNA variant scans (doi:10.7554/elife.80360)
